For 2 proteins, Km, kcat and kcat/Km results are on record in publication PMC5722948, “A tyrosinase, mTyr-CNK, that is functionally available as a monophenol monooxygenase” (Scientific Reports, 2017).

Substrate in data set [1]: N[C@@H](Cc1ccc(O)cc1)C(=O)O
The experiment in a line: purified protein. It counts as biochemical, Candidatus Nitrosopumilus koreensis. As to conditions: monophenolase.

Substrate in data set [2]: N[C@@H](Cc1ccc(O)c(O)c1)C(=O)O
The experiment in a line: purified protein. It counts as biochemical, Candidatus Nitrosopumilus koreensis. As to conditions: diphenolase.

[3] abbreviates: 50 mM Tris pH 6.0, 0.01 mM CuSO4, 20 °C, substrate range 0.025–0.0625 mM.

B1: mTyr-CNK (Candidatus Nitrosopumilus koreensis AR1) (protein)
chain: MTRKNAKDFLPDERQRYCNALLTLKQTIEPGHTLSKYDEFVAIHYGVTRRLRNGIPIGDGAHFVPGFLAWHREYLNRFEKAIRTVDSTLSLPYWNWSSGDDTDTTEIFTDDFMGPPGDPNNGNKITSGYFVENNWEVHSELDGGNNGSVLVRDSTLLSSSKLSQVSGYGELAMDAVNGDNDFDSFLPGLEGPHGSIHMWIGGHMTSMTSPNDPIFFLHHANIDRLWSKWQELHPGPENYNPNNDGSYGSRLNDRMWPWDGSEDTTTTRTGTATGISLQGLLPTFSDYDIVTPRHVLDNNLTIP
notes: mature form, residues 1-303, C-terminal extension 304-415 removed; His6 tag (pET23b+), codon-optimized gene, E. coli BL21(DE3), Ni-NTA purified
As usually defined, the Km is the substrate concentration at which the rate is half of its maximum. What is called kcat is the maximal rate divided by the concentration of active sites. As usually defined, the kcat/Km is the turnover number divided by the Michaelis constant. As for B1, in “purified protein [1]” (setting [3]), the Km was determined as 2120 ± 140 µM, the kcat was found to be 3.33 ± 0.18 s⁻¹ and the kcat/Km was determined as 1570 ± 10 M⁻¹ s⁻¹. Besides, in the data set “purified protein [2]” (setting [3]), the Km was determined as 490 ± 40 µM, the catalytic constant (kcat) came to 0.87 ± 0.07 s⁻¹ and the kcat/Km is 1810 ± 260 M⁻¹ s⁻¹.

B2: cTyr-CNK (Candidatus Nitrosopumilus koreensis AR1) (protein)
chain: MTRKNAKDFLPDERQRYCNALLTLKQTIEPGHTLSKYDEFVAIHYGVTRRLRNGIPIGDGAHFVPGFLAWHREYLNRFEKAIRTVDSTLSLPYWNWSSGDDTDTTEIFTDDFMGPPGDPNNGNKITSGYFVENNWEVHSELDGGNNGSVLVRDSTLLSSSKLSQVSGYGELAMDAVNGDNDFDSFLPGLEGPHGSIHMWIGGHMTSMTSPNDPIFFLHHANIDRLWSKWQELHPGPENYNPNNDGSYGSRLNDRMWPWDGSEDTTTTRTGTATGISLQGLLPTFSDYDIVTPR
notes: core tyrosinase domain, residues 1-293, C-terminal 294-415 removed; His6 tag (pET23b+), E. coli BL21(DE3), Ni-NTA purified
As for B2, in the data set “purified protein [1]” (pH 6, 20 °C), the Michaelis constant (Km) stood at 1600 ± 650 µM and the kcat is 2.13 ± 0.79 s⁻¹. For the same protein, in “purified protein [2]” (pH 6, 20 °C), the Km was determined as 560 ± 40 µM and the catalytic constant (kcat) worked out at 2.05 ± 0.10 s⁻¹.
